# Source: article PMC9751088, “Structure of the Acidobacteria homodimeric reaction center bound with cytochrome c” (Nature Communications, 2022)
# T1: PscB (Chloracidobacterium thermophilum, UniProt G2LDR7 1-179)
# T1 construct: Only in the larger form CabRCL; also called PscB/CabRC
# T1 sequence (looked up): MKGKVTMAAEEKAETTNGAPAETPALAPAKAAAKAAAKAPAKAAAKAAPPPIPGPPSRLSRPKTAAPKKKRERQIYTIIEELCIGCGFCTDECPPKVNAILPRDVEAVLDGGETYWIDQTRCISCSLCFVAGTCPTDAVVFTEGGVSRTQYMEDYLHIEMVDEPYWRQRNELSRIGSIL
# What was measured:
# [1] = molecular target: T2, CabRC core (PscA homodimer) in the CabRC complex (Chloracidobacterium thermophilum, UniProt G2LDR8); assay: cryo-EM structure ([…] Å CabRCS; […] Å CabRCL); HPLC of pigments; assay type: binding; details: one transmembrane molecule in each PscA
# T2 construct: gene Cabther_A2188; native complex from C. thermophilum membranes, Triton X-100, untagged; PscA homodimer with 11 TMHs each, insertion N440-H644; smaller form CabRCS without and larger form CabRCL with PscB and PscZ; with c-type cytochrome PscX; c-type cytochrome PscY; Reaction center subunit PscU; Reaction center subunit PscV; Reaction center subunit PscW
# [2] = molecular target: PscA (Chloracidobacterium thermophilum); assay: cryo-EM structure; CabRCS (smaller form, ten subunits), native complex purified from C. thermophilum membranes in Triton X-100; 2.22 Å; 20 mM Tris-HCl pH 7.6, 10 mM ascorbic acid, 0.03% Triton X-100
# [3] = molecular target: T1, PscB; assay: cryo-EM structure; CabRCL (larger form with PscB and PscZ), native complex purified from C. thermophilum membranes in Triton X-100; 2.61 Å global, cytoplasmic region ~3.5 to ~5.0 Å; 20 mM Tris-HCl pH 7.6, 10 mM ascorbic acid, 0.03% Triton X-100; details: both partners purified
molecule,measurement,setting,value
CC(C)=CCC/C(C)=C/C=C/C(C)=C/C=C/C(C)=C/C=C/C=C(C)/C=C/C=C(C)/C=C/C=C(\C)CCC=C(C)C [lycopene],cryo-EM structure (2.22 Å CabRCS; 2.61 Å CabRCL); HPLC of pigments,[1],we identified one transmembrane lycopene molecule in each PscA
PscA (natural protein),stoichiometry N,[2],2
"PscZ (natural protein, Chloracidobacterium thermophilum, UniProt G2LHG2 1-60, looked up, Only in the larger form CabRCL) MARTPEEIVKRYKEANIWLRHWKQQIGLAKDEEQREMFTQYYEERVQEIAALEEPYRAAL",binding result,[3],binds
